These results are taken from doi:10.1101/779439.

The target in the assay is peptide of CD3 zeta chain containing SNID2 (residues 115-135). The assay can be described thus: ITC. (In ITC the heat of successive injections is recorded.)

Take “HIV-2 consensus Nef core domain (residues 90-256) (domain or fragment)”: the Kd – broadly, the equilibrium constant for the complex coming apart – worked out at 12 µM.

With “SIVmac239 Nef full core domain (residues 90-263), His-tagged, as used for ITC (domain or fragment)”, the Kd is 5 µM.
